Results published in PMC11723922.
Read-outs that look alike come from different tables or passages of the source.

Tests used:
Assay in all cases: SPR; BIAcore X100; biotinylated Avi-tagged TβRI or TβRII captured on neutravidin-coupled CM-5 chip (max 150 RU); full-length TGM injected as twofold dilution series; HBS-EP, 25 mM HEPES, 150 mM NaCl, 0.005% P20, pH 7.4; 100 µL/min; 1:1 kinetic model
[1] = biological target: Biotinylated Avi-tagged human TβRI extracellular domain (human) (UniProt P36897)
Biotinylated Avi-tagged human TβRI extracellular domain (human), sequence (P36897 34-126): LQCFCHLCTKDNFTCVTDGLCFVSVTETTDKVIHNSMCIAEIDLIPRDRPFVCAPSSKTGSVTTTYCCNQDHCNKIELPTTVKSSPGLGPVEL

[2] = biological target: Biotinylated Avi-tagged human TβRII extracellular domain (human) (UniProt P37173)
Biotinylated Avi-tagged human TβRII extracellular domain (human), sequence (P37173 23-166): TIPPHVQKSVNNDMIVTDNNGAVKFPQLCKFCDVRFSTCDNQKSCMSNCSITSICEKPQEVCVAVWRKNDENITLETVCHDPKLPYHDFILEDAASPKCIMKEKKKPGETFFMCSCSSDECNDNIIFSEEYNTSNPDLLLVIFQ

[3] = biological target: Biotinylated Avi-tagged human TβRI extracellular domain (human) (UniProt P36897); remark: listed apart in the source

Substance	Kd [1] [µM]	Kd [2] [µM]	Kd [3] [µM]
TGM1 full-length (D1-5), recombinant (natural protein)	0.09	–	–
TGM4 full-length (D1-5), recombinant (natural protein)	0.005	116	0.003 to 0.005
